Measured values from US20190016794A1 (Boehringer Ingelheim, published 2019).

T1: recombinant human IL23 (human, UniProt P29460 23-328)
T1 sequence 1: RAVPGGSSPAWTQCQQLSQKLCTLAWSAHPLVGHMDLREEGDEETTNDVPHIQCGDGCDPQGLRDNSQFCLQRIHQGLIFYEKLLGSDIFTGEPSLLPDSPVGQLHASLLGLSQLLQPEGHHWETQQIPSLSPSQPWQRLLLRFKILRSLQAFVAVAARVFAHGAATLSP
T1 sequence 2: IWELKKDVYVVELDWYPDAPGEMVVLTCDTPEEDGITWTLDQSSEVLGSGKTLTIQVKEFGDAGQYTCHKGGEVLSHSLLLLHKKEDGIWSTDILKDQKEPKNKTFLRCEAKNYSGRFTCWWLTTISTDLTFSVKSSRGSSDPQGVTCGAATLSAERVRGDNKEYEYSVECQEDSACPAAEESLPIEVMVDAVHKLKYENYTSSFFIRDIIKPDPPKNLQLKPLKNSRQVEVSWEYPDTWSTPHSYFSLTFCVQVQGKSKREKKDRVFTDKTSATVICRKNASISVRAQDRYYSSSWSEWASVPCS

T2: recombinant cynomolgus IL23 (cynomolgus)
T2 chain 1: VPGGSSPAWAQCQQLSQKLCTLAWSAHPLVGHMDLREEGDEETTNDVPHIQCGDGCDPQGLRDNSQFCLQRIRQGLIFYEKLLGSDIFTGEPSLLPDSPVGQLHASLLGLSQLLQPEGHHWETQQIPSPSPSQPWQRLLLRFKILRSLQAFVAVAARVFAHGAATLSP
T2 chain 2: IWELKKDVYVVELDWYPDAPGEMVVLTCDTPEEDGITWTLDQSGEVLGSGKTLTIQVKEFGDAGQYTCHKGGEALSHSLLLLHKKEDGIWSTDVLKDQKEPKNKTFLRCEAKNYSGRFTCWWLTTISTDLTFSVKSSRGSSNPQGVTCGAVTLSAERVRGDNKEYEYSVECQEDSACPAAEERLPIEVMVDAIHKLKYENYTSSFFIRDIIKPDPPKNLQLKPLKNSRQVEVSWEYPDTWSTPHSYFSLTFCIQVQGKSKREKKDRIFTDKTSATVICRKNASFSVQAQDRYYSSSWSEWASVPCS

T3: Linked human IL-23 (human, UniProt P29460 23-328)
T3 construct: Printed as 'Linked human IL-23 (Boehringer Ingelheim Pharmaceuticals, Inc)' in the SPR method
T3 sequence 1: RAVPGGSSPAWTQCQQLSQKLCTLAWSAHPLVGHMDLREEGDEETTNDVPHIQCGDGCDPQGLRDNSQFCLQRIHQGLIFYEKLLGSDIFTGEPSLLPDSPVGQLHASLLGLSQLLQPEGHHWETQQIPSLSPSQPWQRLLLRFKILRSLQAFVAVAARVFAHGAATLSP
T3 sequence 2: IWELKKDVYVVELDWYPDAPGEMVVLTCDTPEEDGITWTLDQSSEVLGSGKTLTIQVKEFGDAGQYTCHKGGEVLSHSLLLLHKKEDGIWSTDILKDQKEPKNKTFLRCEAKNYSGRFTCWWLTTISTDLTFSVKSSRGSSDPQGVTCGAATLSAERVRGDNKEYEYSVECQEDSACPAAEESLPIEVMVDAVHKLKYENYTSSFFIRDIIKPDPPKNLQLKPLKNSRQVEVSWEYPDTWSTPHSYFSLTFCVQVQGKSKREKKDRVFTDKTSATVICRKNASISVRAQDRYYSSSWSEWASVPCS


Legend:
human TNF-alpha [1] = molecular target: T4, human TNF-alpha (human, UniProt P01375 77-233); test: cell-based or functional assay
T4 sequence (P01375 77-233 limits assumed): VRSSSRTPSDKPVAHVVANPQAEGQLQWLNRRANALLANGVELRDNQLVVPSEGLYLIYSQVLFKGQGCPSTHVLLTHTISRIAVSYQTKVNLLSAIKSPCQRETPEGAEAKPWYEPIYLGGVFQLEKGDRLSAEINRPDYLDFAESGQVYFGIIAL

human TNF-alpha [2] = molecular target: T4, human TNF-alpha; test: cell-based or functional assay; remark: listed apart in the source
cynomolgus TNF-alpha = cynomolgus TNF-alpha (cynomolgus, UniProt P79337 77-233, limits assumed); test: cell-based or functional assay
Sequence of cynomolgus TNF-alpha (P79337 77-233 limits assumed): as the sequence (P01375 77-233 limits assumed) above, with L37V, R44T, T72N, R138L counted along it

human TNF-alpha [3] = molecular target: T4, human TNF-alpha; test: cell-based or functional assay; remark: listed apart in the source
human TNF-alpha [4] = molecular target: T4, human TNF-alpha; test: cell-based or functional assay; remark: listed apart in the source
recombinant human IL23 [5] = molecular target: T1, recombinant human IL23; test: cell-based or functional assay
recombinant human IL23 [6] = molecular target: T1, recombinant human IL23; test: cell-based or functional assay; remark: listed apart in the source
[7] = molecular target: T2, recombinant cynomolgus IL23; test: cell-based or functional assay
recombinant human IL23 [8] = molecular target: T1, recombinant human IL23; test: cell-based or functional assay; remark: listed apart in the source
recombinant human IL23 [9] = molecular target: T1, recombinant human IL23; test: cell-based or functional assay; remark: listed apart in the source
membrane bound TNF-alpha [10] = molecular target: T5, membrane bound TNF-alpha; test: flow cytometry, mTNF-transfected CHO cells (geomean)
T5 construct: whole, on cells; also called mTNF; membrane expressed TNF-alpha
T5 sequence (P01375 whole entry): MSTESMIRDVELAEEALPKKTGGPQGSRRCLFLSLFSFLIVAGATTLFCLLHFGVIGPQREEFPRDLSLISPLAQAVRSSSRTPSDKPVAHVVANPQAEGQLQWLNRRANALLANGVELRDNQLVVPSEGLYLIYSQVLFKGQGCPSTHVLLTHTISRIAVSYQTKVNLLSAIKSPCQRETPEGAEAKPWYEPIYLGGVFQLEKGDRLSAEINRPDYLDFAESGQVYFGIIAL
Experimental: (§1) All reagents were prepared in flow cytometry staining buffer (BioLegend). Membrane expressed TNF-alpha transfected cell lines (Jurkat and CHO) and parental cell lines were harvested from tissue culture vessels, washed, counted and resuspended to 1×10̂6 cells/ml in flow cytometry staining buffer. One hundred microliters of the cell suspension was added to 96 well microtiter plates and placed on ice. Titrations of test compounds were prepared and 50 uL was added to the cells. After sixty minute incubation on ice, the cell+test compounds were washed and 50 uL of a secondary antibody (Jackson ImmunoResearch) was added. The samples were incubated in the dark, at 4 C, for 60 minutes, followed by washes. After a final wash the cells were resuspended in 60 uL of fixative (BD Bioscience). Median fluorescence was determined for each sample in a flow cytometer and plotted versus the concentration of the test sample. EC₅₀ values were calculated using the 4 Parameter Logistic enabled by the Excel add-in XLfit (Activity Base software, ID Business Solutions, Ltd.).

membrane bound TNF-alpha [11] = molecular target: T5, membrane bound TNF-alpha; test: flow cytometry, mTNF-transfected Jurkat cells (geomean)
Experimental: as §1

recombinant human IL23 [12] = molecular target: T1, recombinant human IL23; test: cell-based or functional assay; remark: listed apart in the source
recombinant human IL23 [13] = molecular target: T1, recombinant human IL23; test: cell-based or functional assay; remark: listed apart in the source
human TNF-alpha [14] = molecular target: T4, human TNF-alpha; test: SPR (ProteOn XPR36), compound captured on goat anti-human IgG Fc, antigen injected
Experimental: (§2) SPR experiments were performed on a ProteOn XPR36 instrument (Bio Rad). A GLM chip was preconditioned with sequential injections of 60 sec of 0.5% SDS, 50 mM NaOH, and 100 mM HCl at a flow rate of 30 μl/min both vertical and horizontal directions. […] Goat-anti-human IgG (GAHA) Fc gamma (Invitrogen) at a concentration of 30 μg/ml in 10 mM, pH 5.0 sodium acetate buffer was immobilized to 8,000 resonance units on the activated GLM chip in 6 horizontal channels. The chip was finally deactivated with 1 M ethanolamine HCl in 6 horizontal channels. The prepared GAHA chip was rotated to vertical direction to capture test compounds, over 5 vertical channels and the last channel was used as a column reference. The captured chip was then rotated again to the horizontal direction for binding. […] The dissociation was allowed for 2 hour. […] The regenerated GAHA was ready for another binding cycle.

Linked human IL-23 = molecular target: T3, Linked human IL-23; test: SPR (ProteOn XPR36), compound captured on goat anti-human IgG Fc, linked human IL-23 injected at 0.625-10 nM
Experimental: as §2

| Binder | L929 TNF Cytotox IC50 (human TNF-alpha [1]) [nM] | L929 TNF Cytotox IC90 (human TNF-alpha [1]) [nM] | HeLa IL8 Hi-Hu-TNF IC50 (human TNF-alpha [2]) [nM] | HeLa IL8 Hi-Hu-TNF IC90 (human TNF-alpha [2]) [nM] | HeLa IL8 Lo-Hu-TNF IC50 (human TNF-alpha [2]) [nM] | HeLa IL8 Lo-Hu-TNF IC90 (human TNF-alpha [2]) [nM] | TNF-IL8 Whole Blood IC50 (human TNF-alpha [3]) [nM] | TNF-IL8 Whole Blood IC90 (human TNF-alpha [3]) [nM] | Dual Phospho Jurkat-pNf-Kb IC50 (human TNF-alpha [4]) [pM] | Dual Phospho Jurkat-pNf-Kb IC90 (human TNF-alpha [4]) [pM] | Dual Phospho DB-pSTAT3 IC50 (recombinant human IL23 [5]) [pM] | Dual Phospho DB-pSTAT3 IC90 (recombinant human IL23 [5]) [pM] | hIL23 pSTAT3 DB assay IC50 (recombinant human IL23 [6]) [pM] | hIL23 pSTAT3 DB assay IC90 (recombinant human IL23 [6]) [pM] | CynoIL23 MSA IC50 [7] [nM] | CynoIL23 MSA IC90 [7] [nM] | huIL23 MSA IC50 (recombinant human IL23 [8]) [nM] | huIL23 MSA IC90 (recombinant human IL23 [8]) [nM] | IL23A pSTAT3 (MG) IC50 (recombinant human IL23 [9]) [pM] | IL23A pSTAT3 (MG) IC90 (recombinant human IL23 [9]) [pM] | further results |
| --- | --- | --- | --- | --- | --- | --- | --- | --- | --- | --- | --- | --- | --- | --- | --- | --- | --- | --- | --- | --- | --- |
| Compound O (bispecific antibody, GS linkers, isotype IgG1KO; counterpart of Compound E without YTE; also called Compound 0) chain 1: not shown chain 2: EIVLTQSPATLSLSPGERATLSCRASQSVYSYLAWYQQKPGQAPRLLIYDASNRATGIPARFSGSGSGTDFTLTISSLEPEDFAVYYCQQRSNWPPFTFGPGTKVDIKGGGSGGGGQVQLVQSGAEVKKPGSSVKVSCKASGYTFTDQTIHWMRQAPGQGLEWIGYIYPRDDSPKYNENFKGKVTITADKSTSTAYMELSSLRSEDTAVYYCAIPDRSGYAWFIYWGQGTLVTVSSLGGGSGRTVAAPSVFIFPPSDEQLKSGTASVVCLLNNFYPREAKVQWKVDNALQSGNSQESVTEQDSKDSTYSLSSTLTLSKADYEKHKVYACEVTHQGLSSPVTKSFNRGEC | 0.0042 | 0.016 | 0.43 | 0.76 | 0.0099 | 0.043 | 0.32 | 0.47 | 210 | 740 | 210 | 580 | 300 | 720 | 0.12 | 0.8 | 0.21 | 2.2 | 160 | 650 | HeLa IL8 Cyno-TNF IC50 (cynomolgus TNF-alpha): 0.3 nM; HeLa IL8 Cyno-TNF IC90 (cynomolgus TNF-alpha): 0.97 nM; EC50 (membrane bound TNF-alpha [10]): 0.77 nM; EC50 (membrane bound TNF-alpha [11]): 0.27 nM |
| Compound E (bispecific antibody, GS linkers, isotype IgG1KO-YTE) chain 1: DIQMTQSPSSLSASVGDRVTITCKASRDVAIAVAWYQQKPGKVPKLLIYWASTRHTGVPSRFSGSGSRTDFTLTISSLQPEDVADYFCHQYSSYPFTFGSGTKLEIKGGGSGGGGQVQLVESGGGVVQPGRSLRLSCAASGFIFSSYAMHWVRQAPGNGLEWVAFMSYDGSNKKYADSVKGRFTISRDNSKNTLYLQMNSLRAEDTAVYYCARDRGIAAGGNYYYYGMDVWGQGTTVTVSSLGGGSGASTKGPSVFPLAPSSKSTSGGTAALGCLVKDYFPEPVTVSWNSGALTSGVHTFPAVLQSSGLYSLSSVVTVPSSSLGTQTYICNVNHKPSNTKVDKRVEPKSCDKTHTCPPCPAPEAAGGPSVFLFPPKPKDTLYITREPEVTCVVVDVSHEDPEVKFNWYVDGVEVHNAKTKPREEQYNSTYRVVSVLTVLHQDWLNGKEYKCKVSNKALPAPIEKTISKAKGQPREPQVYTLPPSREEMTKNQVSLTCLVKGFYPSDIAVEWESNGQPENNYKTTPPVLDSDGSFFLYSKLTVDKSRWQQGNVFSCSVMHEALHNHYTQKSLSLSPGK chain 2: EIVLTQSPATLSLSPGERATLSCRASQSVYSYLAWYQQKPGQAPRLLIYDASNRATGIPARFSGSGSGTDFTLTISSLEPEDFAVYYCQQRSNWPPFTFGPGTKVDIKGGGSGGGGQVQLVQSGAEVKKPGSSVKVSCKASGYTFTDQTIHWMRQAPGQGLEWIGYIYPRDDSPKYNENFKGKVTITADKSTSTAYMELSSLRSEDTAVYYCAIPDRSGYAWFIYWGQGTLVTVSSLGGGSGRTVAAPSVFIFPPSDEQLKSGTASVVCLLNNFYPREAKVQWKVDNALQSGNSQESVTEQDSKDSTYSLSSTLTLSKADYEKHKVYACEVTHQGLSSPVTKSFNRGEC | 0.0041 | 0.017 | 0.32 | 0.53 | 0.0092 | 0.035 | 0.34 | 0.61 | 260 | 340 | 230 | 770 | 300 | 700 | 0.077 | 1.2 | 0.2 | 1.7 | 140 | 830 | IC50, IL-23-dependent STAT3 activation (DB-STAT3Luc10 luciferase) (recombinant human IL23 [12]): 0.212 nM; IC90, IL-23-dependent STAT3 activation (DB-STAT3Luc10 luciferase) (recombinant human IL23 [12]): 0.965 nM; First test IC50, IL-23-dependent STAT3 activation (luciferase) (recombinant human IL23 [13]): 0.17 nM; GEOMEAN IC50, IL-23-dependent STAT3 activation (luciferase) (recombinant human IL23 [13]): 0.19 nM; GEOMEAN IC90, IL-23-dependent STAT3 activation (luciferase) (recombinant human IL23 [13]): 0.859 nM; EC50 (membrane bound TNF-alpha [10]): 0.45 nM; EC50 (membrane bound TNF-alpha [11]): 0.2 nM; Kd (human TNF-alpha [14]): 0.00411 nM; Kd (Linked human IL-23): 0.007 nM |
